Results on one substance are retold here after patent US20220049019A1.

One assay concerns the target FcγRIIIa (UniProt P08637). The assay can be described thus: competitive TR-FRET. (In general: TR-FRET usually uses a lanthanide donor and a delayed reading to cut background.)
In another assay the target is FcγRIIa (UniProt P12318). The experiment in a line: competitive TR-FRET.
Assay [1] addresses FcγRIIb receptor (UniProt P31994). The experiment in a line: competitive TR-FRET.
Assay [2] shares this target. The experiment in a line: cell based competitive TR-FRET (CisBio); displacement of a fluorescently labeled antibody from the cell surface receptor.

A value given as a limit tells only on which side of the number the result lay.

By EC50 is commonly meant the midpoint of the concentration-response curve. Low values mean an effect from little substance, high ones a need for much substance. For the substance “Construct 4-FcγRIIb+ mutant (from UniProt P01857 27-328; P0DOX5 223-448)”, the figures for the EC50 with FcγRIIIa, with FcγRIIa and in the assay with FcγRIIb receptor [1] were 26.7 nM, 0.126 nM and 0.0165 nM, respectively. In the assay with FcγRIIb receptor [2], this substance came in with a fold increase in binding against the Construct 4 (SIF3) control of more than 300 fold.
